The text below walks through data of patent US20130247232A1.

Test [1] addresses MUC5AC (NPC-1 antigen) expressed by LS174T human colorectal tumor cells (human) (UniProt P98088). Put plainly: flow cytometry on LS174T cells. For orientation: Flow cytometry measures light scatter and fluorescence of single cells or particles in a stream.
Test [2] addresses MUC5AC (NPC-1 antigen) expressed by SW480 human colorectal tumor cells (human) (UniProt P98088). Put plainly: flow cytometry on SW480 cells.
In test [3] the target is MUC5AC (NPC-1 antigen) expressed by CFPAC-1 human pancreatic tumor cells (human) (UniProt P98088). Put plainly: FACS, 2 µg/ml isotype control antibody-FITC on CFPAC cells.
MUC5AC (NPC-1 antigen) expressed by CFPAC-1 human pancreatic tumor cells (human), sequence (P98088 other isoform, or with tags, fused parts or gaps limits assumed): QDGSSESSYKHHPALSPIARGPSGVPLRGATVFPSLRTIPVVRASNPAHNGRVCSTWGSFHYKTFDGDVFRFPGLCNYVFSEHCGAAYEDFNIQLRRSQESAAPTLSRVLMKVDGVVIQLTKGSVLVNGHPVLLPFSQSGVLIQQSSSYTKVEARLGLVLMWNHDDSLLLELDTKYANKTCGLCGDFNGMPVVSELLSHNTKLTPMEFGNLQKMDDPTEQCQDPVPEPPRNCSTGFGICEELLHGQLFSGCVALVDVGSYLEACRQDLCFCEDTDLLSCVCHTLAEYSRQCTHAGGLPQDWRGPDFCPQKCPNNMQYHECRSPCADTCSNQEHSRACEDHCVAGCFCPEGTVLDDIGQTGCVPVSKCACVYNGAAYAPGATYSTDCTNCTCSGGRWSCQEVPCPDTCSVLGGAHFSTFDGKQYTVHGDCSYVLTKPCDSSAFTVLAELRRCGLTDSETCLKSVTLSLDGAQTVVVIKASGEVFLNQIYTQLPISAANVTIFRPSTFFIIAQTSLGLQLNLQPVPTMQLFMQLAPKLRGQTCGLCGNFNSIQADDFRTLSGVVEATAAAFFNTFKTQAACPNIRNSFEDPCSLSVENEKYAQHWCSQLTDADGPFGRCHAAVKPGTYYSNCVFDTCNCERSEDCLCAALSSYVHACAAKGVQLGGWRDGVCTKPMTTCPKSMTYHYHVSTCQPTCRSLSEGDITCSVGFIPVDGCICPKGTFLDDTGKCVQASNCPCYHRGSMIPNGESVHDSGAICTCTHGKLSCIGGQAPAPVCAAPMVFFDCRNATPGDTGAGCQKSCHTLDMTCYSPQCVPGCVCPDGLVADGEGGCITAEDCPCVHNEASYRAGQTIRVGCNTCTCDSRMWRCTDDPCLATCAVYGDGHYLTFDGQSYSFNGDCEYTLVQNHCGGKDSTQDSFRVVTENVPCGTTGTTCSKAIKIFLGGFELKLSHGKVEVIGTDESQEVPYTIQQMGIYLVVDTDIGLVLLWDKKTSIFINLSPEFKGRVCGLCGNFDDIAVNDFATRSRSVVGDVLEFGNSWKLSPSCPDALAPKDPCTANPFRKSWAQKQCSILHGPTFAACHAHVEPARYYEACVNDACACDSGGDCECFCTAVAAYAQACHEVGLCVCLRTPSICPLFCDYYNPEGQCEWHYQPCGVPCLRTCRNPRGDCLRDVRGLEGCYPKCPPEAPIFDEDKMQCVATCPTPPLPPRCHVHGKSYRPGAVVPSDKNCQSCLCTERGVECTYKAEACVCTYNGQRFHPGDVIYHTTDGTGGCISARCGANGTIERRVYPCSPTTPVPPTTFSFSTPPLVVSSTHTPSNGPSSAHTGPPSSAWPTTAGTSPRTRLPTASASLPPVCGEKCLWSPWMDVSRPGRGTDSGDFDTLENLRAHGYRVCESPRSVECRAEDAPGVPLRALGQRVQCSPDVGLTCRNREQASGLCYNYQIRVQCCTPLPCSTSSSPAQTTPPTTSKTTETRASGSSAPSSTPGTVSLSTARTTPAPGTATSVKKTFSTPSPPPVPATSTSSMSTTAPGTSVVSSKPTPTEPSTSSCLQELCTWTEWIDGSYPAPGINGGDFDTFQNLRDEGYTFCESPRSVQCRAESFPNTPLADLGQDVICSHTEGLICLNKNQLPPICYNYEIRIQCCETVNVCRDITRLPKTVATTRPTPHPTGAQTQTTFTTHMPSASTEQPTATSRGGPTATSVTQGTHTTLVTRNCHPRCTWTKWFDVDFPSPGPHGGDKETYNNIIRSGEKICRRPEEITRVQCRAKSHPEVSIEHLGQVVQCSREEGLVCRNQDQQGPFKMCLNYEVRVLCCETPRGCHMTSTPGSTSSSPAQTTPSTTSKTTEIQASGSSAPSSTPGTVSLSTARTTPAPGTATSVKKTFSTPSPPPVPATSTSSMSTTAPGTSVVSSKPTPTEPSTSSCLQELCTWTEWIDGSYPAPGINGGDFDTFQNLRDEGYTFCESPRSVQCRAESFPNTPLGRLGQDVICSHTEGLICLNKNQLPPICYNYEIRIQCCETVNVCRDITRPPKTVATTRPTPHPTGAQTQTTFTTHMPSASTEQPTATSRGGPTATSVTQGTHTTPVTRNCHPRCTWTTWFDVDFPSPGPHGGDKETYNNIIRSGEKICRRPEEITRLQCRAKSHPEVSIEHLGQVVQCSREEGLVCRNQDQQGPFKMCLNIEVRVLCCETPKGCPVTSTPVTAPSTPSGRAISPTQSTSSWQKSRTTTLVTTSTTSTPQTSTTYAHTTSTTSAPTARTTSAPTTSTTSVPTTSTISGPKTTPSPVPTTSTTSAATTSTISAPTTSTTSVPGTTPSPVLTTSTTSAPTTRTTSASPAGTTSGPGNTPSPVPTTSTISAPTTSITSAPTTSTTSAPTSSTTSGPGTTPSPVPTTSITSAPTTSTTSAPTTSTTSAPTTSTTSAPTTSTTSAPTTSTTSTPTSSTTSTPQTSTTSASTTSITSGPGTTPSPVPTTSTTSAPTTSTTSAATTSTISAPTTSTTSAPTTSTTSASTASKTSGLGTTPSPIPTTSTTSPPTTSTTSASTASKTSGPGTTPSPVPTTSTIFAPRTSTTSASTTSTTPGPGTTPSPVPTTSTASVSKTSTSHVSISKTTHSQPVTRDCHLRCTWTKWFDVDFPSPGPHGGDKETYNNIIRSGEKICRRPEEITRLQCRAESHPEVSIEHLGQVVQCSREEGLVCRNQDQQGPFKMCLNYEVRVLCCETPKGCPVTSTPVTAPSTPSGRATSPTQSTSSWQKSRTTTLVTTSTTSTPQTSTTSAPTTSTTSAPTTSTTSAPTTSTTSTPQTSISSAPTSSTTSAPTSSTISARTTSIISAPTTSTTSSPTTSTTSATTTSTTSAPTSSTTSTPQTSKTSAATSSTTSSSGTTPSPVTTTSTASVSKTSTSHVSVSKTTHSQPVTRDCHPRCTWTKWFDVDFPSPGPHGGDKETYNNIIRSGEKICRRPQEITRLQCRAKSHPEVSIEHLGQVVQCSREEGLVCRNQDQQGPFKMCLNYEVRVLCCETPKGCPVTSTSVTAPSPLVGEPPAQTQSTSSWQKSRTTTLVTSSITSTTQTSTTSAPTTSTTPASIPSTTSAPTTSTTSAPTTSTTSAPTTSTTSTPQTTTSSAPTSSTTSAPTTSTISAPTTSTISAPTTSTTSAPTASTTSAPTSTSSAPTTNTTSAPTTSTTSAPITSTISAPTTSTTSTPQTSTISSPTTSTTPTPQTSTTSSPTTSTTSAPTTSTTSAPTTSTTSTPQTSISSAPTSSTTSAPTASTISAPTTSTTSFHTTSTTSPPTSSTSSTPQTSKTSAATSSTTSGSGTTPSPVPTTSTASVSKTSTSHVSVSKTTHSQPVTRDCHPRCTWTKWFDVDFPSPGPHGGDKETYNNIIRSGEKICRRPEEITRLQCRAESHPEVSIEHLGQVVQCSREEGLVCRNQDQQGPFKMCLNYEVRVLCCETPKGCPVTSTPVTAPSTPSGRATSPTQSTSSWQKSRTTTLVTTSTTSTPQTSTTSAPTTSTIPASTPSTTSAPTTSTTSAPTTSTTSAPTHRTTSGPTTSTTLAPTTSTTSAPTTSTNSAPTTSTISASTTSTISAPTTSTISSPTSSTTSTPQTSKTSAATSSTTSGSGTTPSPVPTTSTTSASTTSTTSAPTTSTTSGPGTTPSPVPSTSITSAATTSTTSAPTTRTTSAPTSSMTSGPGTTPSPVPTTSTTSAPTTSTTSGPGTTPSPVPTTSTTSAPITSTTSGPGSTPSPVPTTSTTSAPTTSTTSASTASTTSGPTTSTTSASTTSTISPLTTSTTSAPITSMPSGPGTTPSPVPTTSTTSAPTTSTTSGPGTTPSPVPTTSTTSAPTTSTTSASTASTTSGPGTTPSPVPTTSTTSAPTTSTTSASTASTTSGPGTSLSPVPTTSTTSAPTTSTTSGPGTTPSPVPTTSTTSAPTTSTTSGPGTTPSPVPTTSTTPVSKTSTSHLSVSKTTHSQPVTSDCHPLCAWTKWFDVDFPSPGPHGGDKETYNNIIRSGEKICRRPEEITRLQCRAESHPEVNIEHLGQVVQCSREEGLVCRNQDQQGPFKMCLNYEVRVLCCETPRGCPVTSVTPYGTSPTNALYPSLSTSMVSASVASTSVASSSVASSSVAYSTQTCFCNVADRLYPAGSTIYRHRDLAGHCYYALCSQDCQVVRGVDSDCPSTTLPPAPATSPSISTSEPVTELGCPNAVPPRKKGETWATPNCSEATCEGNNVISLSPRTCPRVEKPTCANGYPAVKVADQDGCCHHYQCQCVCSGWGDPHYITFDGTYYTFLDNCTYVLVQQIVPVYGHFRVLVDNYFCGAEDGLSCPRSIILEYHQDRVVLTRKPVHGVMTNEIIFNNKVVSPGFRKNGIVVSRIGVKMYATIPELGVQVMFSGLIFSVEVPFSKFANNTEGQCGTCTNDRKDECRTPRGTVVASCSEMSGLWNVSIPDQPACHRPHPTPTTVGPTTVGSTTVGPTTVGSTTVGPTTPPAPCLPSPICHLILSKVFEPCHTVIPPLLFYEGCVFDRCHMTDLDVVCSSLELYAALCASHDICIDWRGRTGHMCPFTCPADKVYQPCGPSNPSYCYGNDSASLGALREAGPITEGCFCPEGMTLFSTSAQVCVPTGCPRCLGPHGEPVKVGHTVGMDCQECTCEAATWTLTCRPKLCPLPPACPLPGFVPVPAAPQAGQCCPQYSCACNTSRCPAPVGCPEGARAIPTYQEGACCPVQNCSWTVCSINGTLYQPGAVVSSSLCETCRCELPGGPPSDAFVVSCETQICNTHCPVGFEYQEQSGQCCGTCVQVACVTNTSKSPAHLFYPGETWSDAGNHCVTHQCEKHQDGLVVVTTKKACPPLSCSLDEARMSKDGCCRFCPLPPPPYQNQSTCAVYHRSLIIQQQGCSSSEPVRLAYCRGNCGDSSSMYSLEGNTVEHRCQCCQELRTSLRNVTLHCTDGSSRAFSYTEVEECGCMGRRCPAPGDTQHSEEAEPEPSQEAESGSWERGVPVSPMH
The target of test [4] is MUC5AC (NPC-1 antigen) expressed by LS174T human colorectal tumor cells (human) (UniProt P98088). The experiment in a line: FACS, 2 µg/ml isotype control antibody-FITC on LS174 cells.
MUC5AC (NPC-1 antigen) expressed by LS174T human colorectal tumor cells (human), sequence (P98088 other isoform, or with tags, fused parts or gaps limits assumed, change not shown): as the sequence (P98088 other isoform, or with tags, fused parts or gaps limits assumed) above
For test [5], the target named is MUC5AC (NPC-1 antigen) expressed by Colo-205 human colorectal tumor cells (human) (UniProt P98088). The experiment in a line: FACS, 2 µg/ml isotype control antibody-FITC on Colo-205 cells.
MUC5AC (NPC-1 antigen) expressed by Colo-205 human colorectal tumor cells (human), sequence (P98088 other isoform, or with tags, fused parts or gaps limits assumed): as above
The target of test [6] is MUC5AC (NPC-1 antigen) expressed by CFPAC-1 human pancreatic tumor cells (human) (UniProt P98088). Put plainly: flow cytometry on CFPAC-1 cells.
The target in test [7] is MUC5AC (NPC-1 antigen) expressed by Colo-205 human colorectal tumor cells (human) (UniProt P98088). Put plainly: flow cytometry on Colo-205 cells.
Test [8] concerns the target MUC5AC (NPC-1 antigen) expressed by SW480 human colorectal tumor cells (human) (UniProt P98088). Put plainly: FACS, 2 µg/ml isotype control antibody-FITC on SW480 cells.

MUC5AC (NPC-1 antigen) expressed by SW480 human colorectal tumor cells (human), sequence (P98088 other isoform, or with tags, fused parts or gaps limits assumed): as above

For Isotype control antibody, the mfi worked out at 35 mfi in test [1], 56 mfi in test [2], 25 mfi in test [6] and 34 mfi in test [7]. For the same substance, the Percent positive amounted to 1.79% in test [3], 3.85% in test [4], 2.33% in test [5] and 3.38% in test [8].
